Legend:
[1] = target: T1, canine IL-31 protein (Canine_IL31) (canine); assay: SPR (Biacore), IL-31 on chip, 1:1 fit
T1 chain: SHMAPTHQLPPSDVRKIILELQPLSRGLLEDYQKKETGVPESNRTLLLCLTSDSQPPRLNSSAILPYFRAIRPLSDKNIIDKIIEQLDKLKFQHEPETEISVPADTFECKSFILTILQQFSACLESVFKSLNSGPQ

[2] = target: T2, wildtype feline IL-31 protein (Feline_IL31_wildtype) (feline); assay: SPR (Biacore), IL-31 on chip, 1:1 fit
T2 construct: Full length feline IL-31 with C-terminal His tag, secreted from ExpiCHO cells; also called fIL-31
T2 chain: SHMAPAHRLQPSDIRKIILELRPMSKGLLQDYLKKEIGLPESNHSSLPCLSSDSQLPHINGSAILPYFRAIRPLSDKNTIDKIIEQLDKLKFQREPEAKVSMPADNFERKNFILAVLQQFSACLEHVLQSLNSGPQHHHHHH
Experimental: The affinity with which candidate mAbs bind canine and feline IL-31 was determined using surface plasmon resonance (SPR) on a Biacore system (Biocore Life Sciences (GE Healthcare), Uppsala, Sweden). To avoid affinity differences associated with differential surface preparation that can occur when immobilizing antibodies to surfaces; a strategy was employed where IL-31 was directly conjugated to the surface. Immobilization was obtained by amine coupling 5 μg/mL IL-31 using N-hydroxysuccinimide (NHS)/1-Ethyl-3-(3-dimethylaminopropyl) carbodiimide (EDC) chemistry. Chips were quenched with ethanolamine and the affinity with which all candidate mAbs bound to the immobilized IL-31 was evaluated. All curves were fit to a 1:1 model. […] Results for affinity measurements are described herein.

B1: Feline 15H05 1.1 FW2 (antibody, V domains shown)
VH: QVLLVQSGAEVRTPGASVKIFCKASGYSFTSYTIHWLRQAPAQGLEWMGNINPTSGYTENNQRFKDRLTLTADTSTNTAYMELSSLRSADTAMYYCARWGFKYDGEWSFDVWGAGTTVTVSS
VL: EIQMTQSPSSLSASPGDRVTITCRASQGISIWLSWYQQKPGNIPKVLINKASNLHIGVPSRFSGSGSGTDFTLTISSLEPEDAATYYCLQSQTYPLTFGGGTKLEIK
notes: also called felinized 15H05 1.1 FW2
koff [1]: 1.66e-07 s⁻¹ | kon [1]: 384000 M⁻¹ s⁻¹ | Kd [2]: 0.065 nM | koff [2]: 2.49e-05 s⁻¹ | kon [2]: 383000 M⁻¹ s⁻¹

B2: Feline 15H05 VH2 mouse VL (antibody, V domains shown)
VH: QVLLVQSGAEVRTPGASVKIFCKASGYGFTSYTIHWVRQSPAQGLEWMGNINPTSGYTENNQRFKDRLTLTADTSTNTAYMELSSLRSADTAMYYCARWGFKYDGEWSFDVWGAGTTVTVSS
VL: DIQMNQSPSSLSASLGDTITVTCRASQGISIWLSWYQQKPGNIPKVLINKASNLHIGVPPRFSGSGSGTHFTLTITSLQPEDIATYYCLQSQTYPLTFGGGTKLEIN
notes: also called felinized 15H05 VH2 with mouse 15H05 VL (heterochimera)
koff [1]: 0.000379 s⁻¹ | kon [1]: 171000 M⁻¹ s⁻¹ | Kd [2]: 1.61 nM | koff [2]: 5.47e-05 s⁻¹ | kon [2]: 34000 M⁻¹ s⁻¹

B3: Feline 15H05 VH1 mouse VL (antibody, V domains shown)
VH: QVLLVQSGAEVRTPGASVKIFCKASGYSFTSYTIHWLRQAPAQGLEWMGNINPTSGYTENNQRFKDRLTLTADTSTNTAYMELSSLRSADTAMYYCARWGFKYDGEWSFDVWGAGTTVTVSS
VL: DIQMNQSPSSLSASLGDTITVTCRASQGISIWLSWYQQKPGNIPKVLINKASNLHIGVPPRFSGSGSGTHFTLTITSLQPEDIATYYCLQSQTYPLTFGGGTKLEIN
notes: Heterochimeric antibody; also called felinized 15H05 VH1 with mouse 15H05 VL (heterochimera)
koff [1]: 2.66e-07 s⁻¹ | kon [1]: 108000 M⁻¹ s⁻¹ | Kd [2]: 0.168 nM | koff [2]: 2.2e-05 s⁻¹ | kon [2]: 131000 M⁻¹ s⁻¹

B4: Feline 15H05 1.1 V43I (antibody, V domains shown)
VH: QVLLVQSGAEVRTPGASVKIFCKASGYSFTSYTIHWLRQAPAQGLEWMGNINPTSGYTENNQRFKDRLTLTADTSTNTAYMELSSLRSADTAMYYCARWGFKYDGEWSFDVWGAGTTVTVSS
VL: EIQMTQSPSSLSASPGDRVTITCRASQGISIWLSWYQQKPGKIPKLLIYKASNLHIGVPSRFSGSGSGTDFTLTISSLEPEDAATYYCLQSQTYPLTFGGGTKLEIK
Kd [2]: 13.6 nM | koff [2]: 0.000401 s⁻¹ | kon [2]: 29400 M⁻¹ s⁻¹

B5: Feline 15H05 1.1 Y49N (antibody, V domains shown)
VH: QVLLVQSGAEVRTPGASVKIFCKASGYSFTSYTIHWLRQAPAQGLEWMGNINPTSGYTENNQRFKDRLTLTADTSTNTAYMELSSLRSADTAMYYCARWGFKYDGEWSFDVWGAGTTVTVSS
VL: EIQMTQSPSSLSASPGDRVTITCRASQGISIWLSWYQQKPGKVPKLLINKASNLHIGVPSRFSGSGSGTDFTLTISSLEPEDAATYYCLQSQTYPLTFGGGTKLEIK
Kd [2]: 39.5 nM | koff [2]: 0.00095 s⁻¹ | kon [2]: 24000 M⁻¹ s⁻¹

B6: Feline 15H05 1.1 K42N_V43I (antibody, V domains shown)
VH: QVLLVQSGAEVRTPGASVKIFCKASGYSFTSYTIHWLRQAPAQGLEWMGNINPTSGYTENNQRFKDRLTLTADTSTNTAYMELSSLRSADTAMYYCARWGFKYDGEWSFDVWGAGTTVTVSS
VL: EIQMTQSPSSLSASPGDRVTITCRASQGISIWLSWYQQKPGNIPKLLIYKASNLHIGVPSRFSGSGSGTDFTLTISSLEPEDAATYYCLQSQTYPLTFGGGTKLEIK
Kd [2]: 9.42 nM | koff [2]: 0.0022 s⁻¹ | kon [2]: 234000 M⁻¹ s⁻¹

B7: Feline 15H05 2.1 (antibody, V domains shown)
VH: QVLLVQSGAEVRTPGASVKIFCKASGYGFTSYTIHWVRQSPAQGLEWMGNINPTSGYTENNQRFKDRLTLTADTSTNTAYMELSSLRSADTAMYYCARWGFKYDGEWSFDVWGAGTTVTVSS
VL: EIQMTQSPSSLSASPGDRVTITCRASQGISIWLSWYQQKPGKVPKLLIYKASNLHIGVPSRFSGSGSGTDFTLTISSLEPEDAATYYCLQSQTYPLTFGGGTKLEIK
notes: Feline heavy and kappa constant regions
koff [1]: 0.000866 s⁻¹ | kon [1]: 525000 M⁻¹ s⁻¹ | Kd [2]: 22.3 nM | koff [2]: 0.00465 s⁻¹ | kon [2]: 208000 M⁻¹ s⁻¹

B8: Feline 15H05 3.3 (antibody, V domains shown)
VH: QVLLVQSGAEVRKPGASVKIFCKASGYSFTSYTIHWLRQAPEQGLEWMGNINPTSGYTENNQRFKDRLTLTADTSTNTAYMELSSLRSADTAMYYCARWGFKYDGEWSFDVWGAGTTVTVSS
VL: EVVLTQSSAFLSRTLKEKATITCRASQGISIWLSWYQQKPNQAPKLLVKKASNLHIGAPSRFSGSGSGTDFTLTISSPEPEDAATYYCLQSQTYPLTFGGGTKLGDQ
notes: as for B7
Kd [2]: 11.6 nM | koff [2]: 0.000886 s⁻¹ | kon [2]: 76300 M⁻¹ s⁻¹

B9: Feline 15H05 1.1 FW1_2 (antibody, V domains shown)
VH: QVLLVQSGAEVRTPGASVKIFCKASGYSFTSYTIHWLRQAPAQGLEWMGNINPTSGYTENNQRFKDRLTLTADTSTNTAYMELSSLRSADTAMYYCARWGFKYDGEWSFDVWGAGTTVTVSS
VL: DIQMNQSPSSLSASLGDTITVTCRASQGISIWLSWYQQKPGNIPKVLINKASNLHIGVPSRFSGSGSGTDFTLTISSLEPEDAATYYCLQSQTYPLTFGGGTKLEIK
koff [1]: 3.82e-06 s⁻¹ | kon [1]: 6910 M⁻¹ s⁻¹ | Kd [2]: 0.887 nM | koff [2]: 6.7e-06 s⁻¹ | kon [2]: 7560 M⁻¹ s⁻¹

B10: Feline 15H05 1.1 K42N (antibody, V domains shown)
VH: QVLLVQSGAEVRTPGASVKIFCKASGYSFTSYTIHWLRQAPAQGLEWMGNINPTSGYTENNQRFKDRLTLTADTSTNTAYMELSSLRSADTAMYYCARWGFKYDGEWSFDVWGAGTTVTVSS
VL: EIQMTQSPSSLSASPGDRVTITCRASQGISIWLSWYQQKPGNVPKLLIYKASNLHIGVPSRFSGSGSGTDFTLTISSLEPEDAATYYCLQSQTYPLTFGGGTKLEIK
Kd [2]: 6770 nM | koff [2]: 0.011 s⁻¹ | kon [2]: 1630 M⁻¹ s⁻¹

B11: Feline 15H05 1.1 FW2_3 (antibody, V domains shown)
VH: QVLLVQSGAEVRTPGASVKIFCKASGYSFTSYTIHWLRQAPAQGLEWMGNINPTSGYTENNQRFKDRLTLTADTSTNTAYMELSSLRSADTAMYYCARWGFKYDGEWSFDVWGAGTTVTVSS
VL: EIQMTQSPSSLSASPGDRVTITCRASQGISIWLSWYQQKPGNIPKVLINKASNLHIGVPPRFSGSGSGTHFTLTITSLQPEDIATYYCLQSQTYPLTFGGGTKLEIK
koff [1]: 0.00193 s⁻¹ | kon [1]: 9050 M⁻¹ s⁻¹ | Kd [2]: 123 nM | koff [2]: 0.00116 s⁻¹ | kon [2]: 9490 M⁻¹ s⁻¹

B12: Feline 15H05 3.1 (antibody, V domains shown)
VH: QVLLVQSGAEVRKPGASVKIFCKASGYSFTSYTIHWLRQAPEQGLEWMGNINPTSGYTENNQRFKDRLTLTADTSTNTAYMELSSLRSADTAMYYCARWGFKYDGEWSFDVWGAGTTVTVSS
VL: EIQMTQSPSSLSASPGDRVTITCRASQGISIWLSWYQQKPGKVPKLLIYKASNLHIGVPSRFSGSGSGTDFTLTISSLEPEDAATYYCLQSQTYPLTFGGGTKLEIK
notes: as for B7
koff [1]: 2.11e-05 s⁻¹ | kon [1]: 26500 M⁻¹ s⁻¹ | Kd [2]: 37.1 nM | koff [2]: 0.00166 s⁻¹ | kon [2]: 44700 M⁻¹ s⁻¹

B13: Feline 15H05 1.1 L46V (antibody, V domains shown)
VH: QVLLVQSGAEVRTPGASVKIFCKASGYSFTSYTIHWLRQAPAQGLEWMGNINPTSGYTENNQRFKDRLTLTADTSTNTAYMELSSLRSADTAMYYCARWGFKYDGEWSFDVWGAGTTVTVSS
VL: EIQMTQSPSSLSASPGDRVTITCRASQGISIWLSWYQQKPGKVPKVLIYKASNLHIGVPSRFSGSGSGTDFTLTISSLEPEDAATYYCLQSQTYPLTFGGGTKLEIK
Kd [2]: 22.8 nM | koff [2]: 0.000811 s⁻¹ | kon [2]: 35500 M⁻¹ s⁻¹

B14: Feline 15H05 1.1 FW3 (antibody, V domains shown)
VH: QVLLVQSGAEVRTPGASVKIFCKASGYSFTSYTIHWLRQAPAQGLEWMGNINPTSGYTENNQRFKDRLTLTADTSTNTAYMELSSLRSADTAMYYCARWGFKYDGEWSFDVWGAGTTVTVSS
VL: EIQMTQSPSSLSASPGDRVTITCRASQGISIWLSWYQQKPGKVPKLLIYKASNLHIGVPPRFSGSGSGTHFTLTITSLQPEDIATYYCLQSQTYPLTFGGGTKLEIK
Kd [1]: 0.13 nM | koff [1]: 3.91e-07 s⁻¹ | kon [1]: 3000 M⁻¹ s⁻¹ | Kd [2]: 0.0564 nM | koff [2]: 1.21e-05 s⁻¹ | kon [2]: 214000 M⁻¹ s⁻¹

B15: Feline 15H05 1.1 (antibody, V domains shown)
VH: QVLLVQSGAEVRTPGASVKIFCKASGYSFTSYTIHWLRQAPAQGLEWMGNINPTSGYTENNQRFKDRLTLTADTSTNTAYMELSSLRSADTAMYYCARWGFKYDGEWSFDVWGAGTTVTVSS
VL: EIQMTQSPSSLSASPGDRVTITCRASQGISIWLSWYQQKPGKVPKLLIYKASNLHIGVPSRFSGSGSGTDFTLTISSLEPEDAATYYCLQSQTYPLTFGGGTKLEIK
notes: as for B7
koff [1]: 1.36e-07 s⁻¹ | kon [1]: 27000 M⁻¹ s⁻¹ | Kd [2]: 13.5 nM | koff [2]: 0.00131 s⁻¹ | kon [2]: 97100 M⁻¹ s⁻¹

B16: Feline 15H05 1.1 FW1 (antibody, V domains shown)
VH: QVLLVQSGAEVRTPGASVKIFCKASGYSFTSYTIHWLRQAPAQGLEWMGNINPTSGYTENNQRFKDRLTLTADTSTNTAYMELSSLRSADTAMYYCARWGFKYDGEWSFDVWGAGTTVTVSS
VL: DIQMNQSPSSLSASLGDTITVTCRASQGISIWLSWYQQKPGKVPKLLIYKASNLHIGVPSRFSGSGSGTDFTLTISSLEPEDAATYYCLQSQTYPLTFGGGTKLEIK
koff [1]: 0.0156 s⁻¹ | kon [1]: 19200 M⁻¹ s⁻¹ | Kd [2]: 564 nM | koff [2]: 0.00286 s⁻¹ | kon [2]: 5060 M⁻¹ s⁻¹

B17: Feline 15H05 2.3 (antibody, V domains shown)
VH: QVLLVQSGAEVRTPGASVKIFCKASGYGFTSYTIHWVRQSPAQGLEWMGNINPTSGYTENNQRFKDRLTLTADTSTNTAYMELSSLRSADTAMYYCARWGFKYDGEWSFDVWGAGTTVTVSS
VL: EVVLTQSSAFLSRTLKEKATITCRASQGISIWLSWYQQKPNQAPKLLVKKASNLHIGAPSRFSGSGSGTDFTLTISSPEPEDAATYYCLQSQTYPLTFGGGTKLGDQ
notes: as for B7
Kd [2]: 1.57 nM | koff [2]: 0.000535 s⁻¹ | kon [2]: 341000 M⁻¹ s⁻¹
